Biological target: T1, myosin Va (rat (endogenous in hippocampus), UniProt Q9QYF3 1-1828)
T1 construct: myosin Va, rat, endogenous in hippocampus; also called MyoVa; source: endogenous, rat hippocampal homogenate
Assay: co-IP; total rat hippocampal lysates with primary antibody and Protein A/G agarose, 4°C; buffer pH 7.4, 0.05 mol/L HEPES, 0.15 mol/L NaCl, 0.5% NP-40, 1% Triton X-100; non-immune IgG as control; slices untreated or treated with PMA (0.5 umol/L, 10 min) and/or AIP (1 umol/L)
Details: partners not purified

T1 sequence (Q9QYF3 whole entry): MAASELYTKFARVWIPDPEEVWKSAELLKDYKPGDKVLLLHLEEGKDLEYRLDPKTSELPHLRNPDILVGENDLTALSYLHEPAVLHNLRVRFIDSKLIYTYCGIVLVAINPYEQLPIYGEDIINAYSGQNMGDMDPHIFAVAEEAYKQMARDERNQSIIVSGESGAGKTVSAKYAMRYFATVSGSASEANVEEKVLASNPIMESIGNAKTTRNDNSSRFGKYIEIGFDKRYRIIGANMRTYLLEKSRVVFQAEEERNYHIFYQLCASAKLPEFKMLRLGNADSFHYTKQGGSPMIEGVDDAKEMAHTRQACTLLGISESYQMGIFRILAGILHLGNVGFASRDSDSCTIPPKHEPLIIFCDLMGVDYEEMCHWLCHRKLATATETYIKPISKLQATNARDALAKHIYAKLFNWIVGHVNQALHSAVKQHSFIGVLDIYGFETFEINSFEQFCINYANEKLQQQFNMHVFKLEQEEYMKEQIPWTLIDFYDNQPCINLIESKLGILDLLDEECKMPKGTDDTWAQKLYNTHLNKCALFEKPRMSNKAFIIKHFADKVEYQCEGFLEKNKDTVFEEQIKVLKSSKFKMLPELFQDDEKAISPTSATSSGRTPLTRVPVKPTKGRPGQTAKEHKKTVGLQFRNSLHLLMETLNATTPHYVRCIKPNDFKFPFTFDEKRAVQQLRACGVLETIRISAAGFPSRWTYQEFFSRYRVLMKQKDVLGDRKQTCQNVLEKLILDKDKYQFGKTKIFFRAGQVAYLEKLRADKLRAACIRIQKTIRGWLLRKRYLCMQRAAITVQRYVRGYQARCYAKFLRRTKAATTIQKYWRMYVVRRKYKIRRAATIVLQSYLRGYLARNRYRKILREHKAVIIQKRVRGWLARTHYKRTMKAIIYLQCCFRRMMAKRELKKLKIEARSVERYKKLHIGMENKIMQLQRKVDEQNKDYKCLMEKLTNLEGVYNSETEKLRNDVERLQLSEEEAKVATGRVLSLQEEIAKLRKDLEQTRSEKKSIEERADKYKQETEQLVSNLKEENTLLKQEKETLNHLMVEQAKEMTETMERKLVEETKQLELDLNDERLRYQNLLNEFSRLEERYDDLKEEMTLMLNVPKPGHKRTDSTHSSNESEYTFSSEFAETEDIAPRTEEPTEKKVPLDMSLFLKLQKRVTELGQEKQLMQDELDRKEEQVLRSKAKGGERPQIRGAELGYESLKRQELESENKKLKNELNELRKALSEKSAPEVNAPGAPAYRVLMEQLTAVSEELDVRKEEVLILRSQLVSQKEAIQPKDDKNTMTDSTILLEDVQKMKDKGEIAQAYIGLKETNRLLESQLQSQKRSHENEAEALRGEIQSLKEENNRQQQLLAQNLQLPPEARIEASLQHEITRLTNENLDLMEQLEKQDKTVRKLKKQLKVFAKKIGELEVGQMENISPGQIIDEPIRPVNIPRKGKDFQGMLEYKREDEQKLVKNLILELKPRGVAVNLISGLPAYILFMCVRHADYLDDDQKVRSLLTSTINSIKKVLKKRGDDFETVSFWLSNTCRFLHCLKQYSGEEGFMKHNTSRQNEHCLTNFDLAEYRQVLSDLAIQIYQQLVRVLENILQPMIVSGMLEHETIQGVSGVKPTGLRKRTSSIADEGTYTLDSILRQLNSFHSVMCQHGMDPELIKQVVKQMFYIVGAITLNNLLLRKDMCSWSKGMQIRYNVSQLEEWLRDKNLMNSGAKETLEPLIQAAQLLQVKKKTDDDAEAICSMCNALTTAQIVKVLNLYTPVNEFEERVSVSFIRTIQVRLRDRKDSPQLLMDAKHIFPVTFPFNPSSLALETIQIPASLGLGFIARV

B1: NMDA receptor subunit GluN2A (receptor)
chain: not shown
notes: NMDA receptor subunit GluN2A, rat, endogenous in hippocampus; source: endogenous, rat hippocampal homogenate (slices or cultured hippocampal neurons)
In the case of B1, the “co-IP signal with PMA, normalised to control (IP with anti-MyoVa)” value is reported as 1.59 fold of control.

Source: PMC11306496, “Myosin Va-dependent Transport of NMDA Receptors in Hippocampal Neurons” (Neuroscience Bulletin, 2024)
